T1: FcγRIIa R (extracellular domain with a His tag at the C terminus) (human, UniProt P12318 34-217)
T1 construct: extracellular domain; expressed in FreeStyle293 cells; also called FcgRIIa R; FcγRIIa type R; not shown: His tag at the C terminus
T1 sequence (looked up): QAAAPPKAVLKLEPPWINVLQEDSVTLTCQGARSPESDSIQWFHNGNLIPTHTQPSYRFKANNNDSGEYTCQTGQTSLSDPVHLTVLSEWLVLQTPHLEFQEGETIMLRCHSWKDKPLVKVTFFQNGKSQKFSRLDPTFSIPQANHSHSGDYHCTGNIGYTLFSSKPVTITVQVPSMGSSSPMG


Biological target: T1, FcγRIIa R (extracellular domain with a …)
Experiment: SPR Biacore, relative binding

| He/Con_2aR | Binder |
| --- | --- |
| 135 % of GpH7-A5/GpH7-B3/GpL16-k0 (=100) | GpH7-A5/GpH7-B3 variant S239_10E/GpL16-k0 (antibody, human IgG1, kappa, heterodimerized; mutation in one H chain; also called He Ab) heavy 1: not shown heavy 2: not shown light: DIVMTQSPLSLPVTPGEPASISCQASESLVHSNRNTYLHWYLQKPGQSPQLLIYKVSNRFSGVPDRFSGSGSGTDFTLKISRVEAEDVGVYYCSQNTHVPPTFGQGTKVEIERTVAAPSVFIFPPSDEQLKSGTASVVCLLNNFYPREAKVQWKVDNALQSGNSQESVTEQDSKDSTYSLSSTLTLSKADYEKHKVYACEVTHQGLSSPVTKSFNRGEC |
| 109 % of GpH7-A5/GpH7-B3/GpL16-k0 (=100) | GpH7-A5/GpH7-B3 variant S337_07I/GpL16-k0 (antibody, human IgG1, kappa, heterodimerized; mutation in one H chain; also called He Ab) heavy 1: not shown heavy 2: not shown light: DIVMTQSPLSLPVTPGEPASISCQASESLVHSNRNTYLHWYLQKPGQSPQLLIYKVSNRFSGVPDRFSGSGSGTDFTLKISRVEAEDVGVYYCSQNTHVPPTFGQGTKVEIERTVAAPSVFIFPPSDEQLKSGTASVVCLLNNFYPREAKVQWKVDNALQSGNSQESVTEQDSKDSTYSLSSTLTLSKADYEKHKVYACEVTHQGLSSPVTKSFNRGEC |
| 114 % of GpH7-A5/GpH7-B3/GpL16-k0 (=100) | GpH7-A5/GpH7-B3 variant P331_16H/GpL16-k0 (antibody, human IgG1, kappa, heterodimerized; mutation in one H chain; also called He Ab) heavy 1: not shown heavy 2: not shown light: DIVMTQSPLSLPVTPGEPASISCQASESLVHSNRNTYLHWYLQKPGQSPQLLIYKVSNRFSGVPDRFSGSGSGTDFTLKISRVEAEDVGVYYCSQNTHVPPTFGQGTKVEIERTVAAPSVFIFPPSDEQLKSGTASVVCLLNNFYPREAKVQWKVDNALQSGNSQESVTEQDSKDSTYSLSSTLTLSKADYEKHKVYACEVTHQGLSSPVTKSFNRGEC |
| 106 % of GpH7-A5/GpH7-B3/GpL16-k0 (=100) | GpH7-A5/GpH7-B3 variant P331_02A/GpL16-k0 (antibody, human IgG1, kappa, heterodimerized; mutation in one H chain; also called He Ab) heavy 1: not shown heavy 2: not shown light: DIVMTQSPLSLPVTPGEPASISCQASESLVHSNRNTYLHWYLQKPGQSPQLLIYKVSNRFSGVPDRFSGSGSGTDFTLKISRVEAEDVGVYYCSQNTHVPPTFGQGTKVEIERTVAAPSVFIFPPSDEQLKSGTASVVCLLNNFYPREAKVQWKVDNALQSGNSQESVTEQDSKDSTYSLSSTLTLSKADYEKHKVYACEVTHQGLSSPVTKSFNRGEC |
| 111 % of GpH7-A5/GpH7-B3/GpL16-k0 (=100) | GpH7-A5/GpH7-B3 variant P331_04F/GpL16-k0 (antibody, human IgG1, kappa, heterodimerized; mutation in one H chain; also called He Ab) heavy 1: not shown heavy 2: not shown light: DIVMTQSPLSLPVTPGEPASISCQASESLVHSNRNTYLHWYLQKPGQSPQLLIYKVSNRFSGVPDRFSGSGSGTDFTLKISRVEAEDVGVYYCSQNTHVPPTFGQGTKVEIERTVAAPSVFIFPPSDEQLKSGTASVVCLLNNFYPREAKVQWKVDNALQSGNSQESVTEQDSKDSTYSLSSTLTLSKADYEKHKVYACEVTHQGLSSPVTKSFNRGEC |
| 135 % of GpH7-A5/GpH7-B3/GpL16-k0 (=100) | GpH7-A5/GpH7-B3 variant S267_19Q/GpL16-k0 (antibody, human IgG1, kappa, heterodimerized; mutation in one H chain; also called He Ab) heavy 1: not shown heavy 2: not shown light: DIVMTQSPLSLPVTPGEPASISCQASESLVHSNRNTYLHWYLQKPGQSPQLLIYKVSNRFSGVPDRFSGSGSGTDFTLKISRVEAEDVGVYYCSQNTHVPPTFGQGTKVEIERTVAAPSVFIFPPSDEQLKSGTASVVCLLNNFYPREAKVQWKVDNALQSGNSQESVTEQDSKDSTYSLSSTLTLSKADYEKHKVYACEVTHQGLSSPVTKSFNRGEC |
| 112 % of GpH7-A5/GpH7-B3/GpL16-k0 (=100) | GpH7-A5/GpH7-B3 variant S337_10E/GpL16-k0 (antibody, human IgG1, kappa, heterodimerized; mutation in one H chain; also called He Ab) heavy 1: not shown heavy 2: not shown light: DIVMTQSPLSLPVTPGEPASISCQASESLVHSNRNTYLHWYLQKPGQSPQLLIYKVSNRFSGVPDRFSGSGSGTDFTLKISRVEAEDVGVYYCSQNTHVPPTFGQGTKVEIERTVAAPSVFIFPPSDEQLKSGTASVVCLLNNFYPREAKVQWKVDNALQSGNSQESVTEQDSKDSTYSLSSTLTLSKADYEKHKVYACEVTHQGLSSPVTKSFNRGEC |
| 111 % of GpH7-A5/GpH7-B3/GpL16-k0 (=100) | GpH7-A5/GpH7-B3 variant S239_18N/GpL16-k0 (antibody, human IgG1, kappa, heterodimerized; mutation in one H chain; also called He Ab) heavy 1: not shown heavy 2: not shown light: DIVMTQSPLSLPVTPGEPASISCQASESLVHSNRNTYLHWYLQKPGQSPQLLIYKVSNRFSGVPDRFSGSGSGTDFTLKISRVEAEDVGVYYCSQNTHVPPTFGQGTKVEIERTVAAPSVFIFPPSDEQLKSGTASVVCLLNNFYPREAKVQWKVDNALQSGNSQESVTEQDSKDSTYSLSSTLTLSKADYEKHKVYACEVTHQGLSSPVTKSFNRGEC |
| 110 % of GpH7-A5/GpH7-B3/GpL16-k0 (=100) | GpH7-A5/GpH7-B3 variant P331_20W/GpL16-k0 (antibody, human IgG1, kappa, heterodimerized; mutation in one H chain; also called He Ab) heavy 1: not shown heavy 2: not shown light: DIVMTQSPLSLPVTPGEPASISCQASESLVHSNRNTYLHWYLQKPGQSPQLLIYKVSNRFSGVPDRFSGSGSGTDFTLKISRVEAEDVGVYYCSQNTHVPPTFGQGTKVEIERTVAAPSVFIFPPSDEQLKSGTASVVCLLNNFYPREAKVQWKVDNALQSGNSQESVTEQDSKDSTYSLSSTLTLSKADYEKHKVYACEVTHQGLSSPVTKSFNRGEC |
| 106 % of GpH7-A5/GpH7-B3/GpL16-k0 (=100) | GpH7-A5/GpH7-B3 variant S337_03V/GpL16-k0 (antibody, human IgG1, kappa, heterodimerized; mutation in one H chain; also called He Ab) heavy 1: not shown heavy 2: not shown light: DIVMTQSPLSLPVTPGEPASISCQASESLVHSNRNTYLHWYLQKPGQSPQLLIYKVSNRFSGVPDRFSGSGSGTDFTLKISRVEAEDVGVYYCSQNTHVPPTFGQGTKVEIERTVAAPSVFIFPPSDEQLKSGTASVVCLLNNFYPREAKVQWKVDNALQSGNSQESVTEQDSKDSTYSLSSTLTLSKADYEKHKVYACEVTHQGLSSPVTKSFNRGEC |
| 105 % of GpH7-A5/GpH7-B3/GpL16-k0 (=100) | GpH7-A5/GpH7-B3 variant S298_08L/GpL16-k0 (antibody, human IgG1, kappa, heterodimerized; mutation in one H chain; also called He Ab) heavy 1: not shown heavy 2: not shown light: DIVMTQSPLSLPVTPGEPASISCQASESLVHSNRNTYLHWYLQKPGQSPQLLIYKVSNRFSGVPDRFSGSGSGTDFTLKISRVEAEDVGVYYCSQNTHVPPTFGQGTKVEIERTVAAPSVFIFPPSDEQLKSGTASVVCLLNNFYPREAKVQWKVDNALQSGNSQESVTEQDSKDSTYSLSSTLTLSKADYEKHKVYACEVTHQGLSSPVTKSFNRGEC |

— patent publication US20180155451A1 (published 2018)
